Test results as given in the Human Domainome abundance scans (Beltran et al. 2025).
± gives the uncertainty stated by the source.

Test: abundance fitness (aPCA) (normalised: wild type 0, dead -1); higher = more abundant; growth selection in yeast, the domain comes from the species named
Settings: Homo sapiens

Substance	abundance fitness
NEDD4-like E3 ubiquitin-protein ligase WWP2 G449H, O00308	-0.274 ± 0.087
NEDD4-like E3 ubiquitin-protein ligase WWP2 G449I, O00308	-1.09 ± 0.18
NEDD4-like E3 ubiquitin-protein ligase WWP2 G449L, O00308	-0.174 ± 0.038
NEDD4-like E3 ubiquitin-protein ligase WWP2 G449M, O00308	-0.11 ± 0.042
NEDD4-like E3 ubiquitin-protein ligase WWP2 G449N, O00308	0.119 ± 0.065
NEDD4-like E3 ubiquitin-protein ligase WWP2 G449P, O00308	-0.937 ± 0.11
NEDD4-like E3 ubiquitin-protein ligase WWP2 G449Q, O00308	-0.107 ± 0.064
NEDD4-like E3 ubiquitin-protein ligase WWP2 G449R, O00308	-0.14 ± 0.047
NEDD4-like E3 ubiquitin-protein ligase WWP2 G449S, O00308	-0.17 ± 0.029
NEDD4-like E3 ubiquitin-protein ligase WWP2 G449V, O00308	-0.679 ± 0.035
NEDD4-like E3 ubiquitin-protein ligase WWP2 G449W, O00308	-0.283 ± 0.053
NEDD4-like E3 ubiquitin-protein ligase WWP2 G449Y, O00308	-0.205 ± 0.067
NEDD4-like E3 ubiquitin-protein ligase WWP2 G458A, O00308	-0.202 ± 0.059
NEDD4-like E3 ubiquitin-protein ligase WWP2 G458C, O00308	-0.193 ± 0.051
NEDD4-like E3 ubiquitin-protein ligase WWP2 G458D, O00308	-0.343 ± 0.079
NEDD4-like E3 ubiquitin-protein ligase WWP2 G458E, O00308	-0.367 ± 0.063
NEDD4-like E3 ubiquitin-protein ligase WWP2 G458F, O00308	-0.539 ± 0.1
NEDD4-like E3 ubiquitin-protein ligase WWP2 G458H, O00308	-0.234 ± 0.068
NEDD4-like E3 ubiquitin-protein ligase WWP2 G458I, O00308	-1.18 ± 0.19
NEDD4-like E3 ubiquitin-protein ligase WWP2 G458K, O00308	-0.049 ± 0.045
NEDD4-like E3 ubiquitin-protein ligase WWP2 G458L, O00308	-0.283 ± 0.041
NEDD4-like E3 ubiquitin-protein ligase WWP2 G458M, O00308	-0.148 ± 0.041

Substance	abundance fitness
NEDD4-like E3 ubiquitin-protein ligase WWP2 G458N, O00308	-0.308 ± 0.093
NEDD4-like E3 ubiquitin-protein ligase WWP2 G458P, O00308	-1.03 ± 0.064
NEDD4-like E3 ubiquitin-protein ligase WWP2 G458Q, O00308	-0.244 ± 0.064
NEDD4-like E3 ubiquitin-protein ligase WWP2 G458R, O00308	-0.139 ± 0.046
NEDD4-like E3 ubiquitin-protein ligase WWP2 G458S, O00308	-0.176 ± 0.055
NEDD4-like E3 ubiquitin-protein ligase WWP2 G458T, O00308	-0.505 ± 0.058
NEDD4-like E3 ubiquitin-protein ligase WWP2 G458V, O00308	-0.992 ± 0.065
NEDD4-like E3 ubiquitin-protein ligase WWP2 G458W, O00308	-0.461 ± 0.045
NEDD4-like E3 ubiquitin-protein ligase WWP2 G458Y, O00308	-0.262 ± 0.064
NEDD4-like E3 ubiquitin-protein ligase WWP2 G478A, O00308	0.035 ± 0.058
NEDD4-like E3 ubiquitin-protein ligase WWP2 G478C, O00308	-0.001 ± 0.039
NEDD4-like E3 ubiquitin-protein ligase WWP2 G478D, O00308	-0.036 ± 0.05
NEDD4-like E3 ubiquitin-protein ligase WWP2 G478E, O00308	-0.036 ± 0.063
NEDD4-like E3 ubiquitin-protein ligase WWP2 G478F, O00308	-0.014 ± 0.046
NEDD4-like E3 ubiquitin-protein ligase WWP2 G478H, O00308	-0.045 ± 0.069
NEDD4-like E3 ubiquitin-protein ligase WWP2 G478I, O00308	0.136 ± 0.073
NEDD4-like E3 ubiquitin-protein ligase WWP2 G478K, O00308	0.061 ± 0.067
NEDD4-like E3 ubiquitin-protein ligase WWP2 G478L, O00308	0.012 ± 0.035
NEDD4-like E3 ubiquitin-protein ligase WWP2 G478M, O00308	-0.08 ± 0.057
NEDD4-like E3 ubiquitin-protein ligase WWP2 G478N, O00308	-0.136 ± 0.068
NEDD4-like E3 ubiquitin-protein ligase WWP2 G478P, O00308	-0.005 ± 0.052
NEDD4-like E3 ubiquitin-protein ligase WWP2 G478Q, O00308	0.038 ± 0.048
